Source: patent US20230235047A1 (Innovent, published 2023)

Target: T1, human CLDN18.1 on cells (CHO-hCLDN18.1) (human, UniProt P56856 1-261)
T1 construct: whole, on cells; also called human Claudin18.1
Assay: flow cytometry, hybridoma supernatant on CHO-hCLDN18.1

Binder | binding result
3G3 (antibody secreted by the hybridoma, culture supernatant) (antibody, V domains shown) VH: QVQLQQSGPQLVRPGASVKISCKASGYSFTTYWMHWVKQRPGQGLEWIGLIDPSDSETRLNQKFKDKATLTVDKSSSTAYMRLSSPTSEDSAVYYCASNRWLLGWGQGTLVTVSS VL: DIQMIQSPSSLTVTAGEKVTMSCKSSQSLLNSGNQKNYLTWYQQKPGQPPKLLIYWASTRESGVPDRFTGSGSGTDFTLTISSVQTEDLAVYYCQNDYSYPLTFGAGTKLEIK | no binding
14A5 (antibody secreted by the hybridoma, culture supernatant) (antibody, V domains shown) VH: QVQLKESGPGLVAPSQSLSITCSVSGFSLNSYGVGWVRQPPGKGLEWLGVIWGDGSTNYHSVLISRLSIRKDNSKSQVFLKLNSLQTDDTATYYCAMITRGNAMDYWGQGTSVTVSS VL: DIVMTQSPSSLTVTAGEKITMSCKSSQSLLNSGNQRNYLTWYQQKPGQTPKLLIYWASTRKSGVPDRFTGSGSGTDFTLTISSVQAEDLAVYSCQNNYLFPLTFGAGTKLELK | no binding
25C7 (antibody secreted by the hybridoma, culture supernatant) (antibody, V domains shown) VH: EVMLVESGGGLVQPGGSRKLSCAASGFTFSDYGMAWVRQAPGKGPEWVAFINNLAYSIYYVDTVTGRFTISRENAKDTLYLEMSSLRSEDTALYYCARFTTGNVMDYWGQGTSVTVSS VL: DIVMTQSPSSLTVTAGEKVTMTCKSSQSLLNGGNQKNYLTWYQQKPGQPPKLLIYWSSTRESGVPDRFTGSGSGTDFTLTITSVQAEDLAVYYCQNSYSYPLTFGSGTKLELK | no binding
38F8 (antibody secreted by the hybridoma, culture supernatant) (antibody, V domains shown) VH: EVQLVESGGGLVKPGGSLKLSCAASGFSFSDYGMHWVRQAPEKGLEWIAYINSGSRTLYYADTVKGRFTISRDNAKNTLFLQMTSLRSEETAMYYCTRNAYYGNAMDYWGQGTSVTVSS VL: DIQMTQSPSSLTVTAGEKVTMSCKSSQSLLNSGNQRNYLTWYQQIPGQPPKLLIYWSSTRGSGVPDRFTGSGSGTDFTLTISSVQAEDLAVYFCQNVYYYPFTFGSGTRLEVK | no binding
69H9 (antibody secreted by the hybridoma, culture supernatant) (antibody, V domains shown) VH: EVQLQQSGPELMKPGASVKISCKATGYSFSSYNIHWVKQSHGKSLEWIGYIAPFNGDSRYNQKFKGKATVTVDKSSSTAYMHLSSLTSEDSAVYYCGRLNRGNSLDYWGQGTSLTVSS VL: DIVMTQSPSSLTVTAGEKVTMSCKSSQSLFNSGNQRNYLTWYQQKPGQPPKLLIYWASTRESGVPDRFTGSGSGTDFTLTISSVQAEDLAFYYCQNNYIYPLTFGAGTKLELK | no binding
46F6 (antibody secreted by the hybridoma, culture supernatant) (antibody, V domains shown) VH: QVQLKESGPGLVAPSQSLSITCTVSGFSLTDYGVSWIRQPPGKGLEWLGVMWGGGNTYYNSALKSRLSISKDNSKSQVFLKMNSLQSDDTAMYYCAKQRYGGNAMDYWGQGTSVTVSS VL: DIQMTQSPSSLTVTAGEKVTMSCKSSQSLLNSGNQRNYLTWYQQIPGQPPKLLIYWASTRESGVPNRFTGSGSGAEFTLTISSVQTEDLAVYYCQNSYFYPFTFGAGTKLELK | no binding
59C1 (antibody secreted by the hybridoma, culture supernatant) (antibody, V domains shown) VH: QVQLKESGPDLVKPSQSLSLTCTVTGYSITSGYGWNWIRQFPGNKLEWMGYIHFSGSTNYNPSLKSRISITRDTSKNQFFLQLNSVTTEDTATYYCARSGKGNAMDYWGQGTSVTVSS VL: DIQMTQSPSSLTVTAGEKVTMSCKSSQSLLNSGNQKNYLTWYQQKPGQPPKLLIYWASTRESGVPDRFTGSGSGTDFTLTVINMQAEDLALYYCQNDYYFPFTFGSGTKLEIK | no binding
51H10 (antibody secreted by the hybridoma, culture supernatant) (antibody, V domains shown) VH: EVQLQQSVPELVKPGASVRMSCKASGYTFTKYIIQWVKQKPGQGLEWIAYINPYNDDTKYNEKFKGKATLTSDKSASTAYMELSSLTSEDSAVYYCATTYYGNSFPNWGQGTLVTVSA VL: DIVMTQSPSSLTVTAGERVTMTCKSSQSLLNSGNQKNYLTWYQQKPGQPPKLLIYWASTRESGVPDRFTGSGSGTDFTLTISSLQSEDLAVYFCQNDYSFPFTFGSGTKLEIK | no binding
HB37A6 (antibody secreted by the hybridoma, culture supernatant) (antibody, V domains shown) VH: EVQLLDSGGGLVQPGGSLRLSCAASGFTFSSYVMSWVRQAPGKGLNWVSTISHSGGSTYYADSVKGRFTISRDNSKNTLYLQMNSLRAEDTAVYYCAIDAPYYDILTGYRYWGQGTLVTVSS VL: not shown | no binding

Target: T2, human Claudin18.2 protein (P50251802, GenScript) (human, UniProt P56856-2 1-261, limits assumed)
T2 construct: also called human CLDN18.2
Assay: SPR (Biacore T200), human Claudin18.2 amine-coupled to the chip, antibody 0-100 nM in the mobile phase, 1:1 model
Protocol: According to the manufacturer's instructions, human Claudin18.2 (GenScrip, P50251802) was coupled to the surface of a CMS chip (GE Healthcare, 29-1496-03) using the amino coupling kit (GE Healthcare, BR-1006-33), and the remaining activation sites were blocked by injection of 1 M ethanolamine after coupling. According to the manufacturer's instructions, the binding and dissociation between the antigen on the chip surface and antibodies in the mobile phase were determined by Biacore (GE Healthcare, T200) to obtain affinity and kinetic constants. The antibodies (0-100 nM) after gradient dilution flowed over the chip surface in an order from low to high concentrations, with the binding time of 180 s and the dissociation time of 600 s. Finally, the chip was regenerated using 10 mM Glycine pH 1.5 (GE Healthcare, BR-1003-54). Kinetic analysis of the data results were performed using Biacore T200 analysis software with a 1:1 binding model.

Binder | Kd | koff | kon
Hz38F8 (antibody, human IgG1, kappa, V domains shown) VH: EVQLVESGGGLVQPGGSLRLSCAASGFSFSDYGMHWVRQAPGKGLEWVSYINSGSRTLYYADTVKGRFTISRDNAKNSLYLQMNSLRDEDTAVYYCARNAYYGNAMDYWGQGTLVTVSS VL: DIVMTQSPDSLAVSLGERATINCKSSQSLLNSGNQRNYLTWYQQKPGQPPKLLIYWSSTRGSGVPDRFSGSGSGTDFTLTISSLQAEDVAVYYCQNVYYYPFTFGQGTRLEIKR | 0.314 nM | 9.97e-05 s⁻¹ | 318000 M⁻¹ s⁻¹
Hz14A5 (antibody, human IgG1, kappa, V domains shown) VH: QVQLQESGPGLVKPSETLSLTCTVSGFSLNSYGVGWIRQPPGKGLEWIGVIWGDVSTNYHSVLISRVTISKDTSKNQVSLKLSSVTAADTAVYYCARITRGNAMDYWGQGTLVTVSS VL: DIVMTQSPDSLAVSLGERATINCKSSQSLLNSGNQRNYLTWYQQKPGQPPKLLIYWASTRKSGVPDRFSGSGSGTDFTLTISSLQAEDVAVYYCQNNYLFPLTFGGGTKVEIKR | 0.49 nM | 0.000208 s⁻¹ | 424000 M⁻¹ s⁻¹
Hz59C1 (antibody, human IgG1, kappa, V domains shown) VH: QVQLQESGPGLVKPSETLSLTCTVSGYSITSGYGWNWIRQPPGKGLEWIGYIHFSGSTNYNPSLKSRVTISVDTSKNQFSLKLSSVTAADTAVYYCARSGKGNAMDYWGQGTLVTVSS VL: DIVMTQSPDSLAVSLGERATINCKSSQSLLNSGNQKNYLTWYQQKPGQPPKLLIYWASTRESGVPDRFSGSGSGTDFTLTISSLQAEDVAVYYCQNDYYFPFTFGGGTKVEIKR | 1.75 nM | 0.000433 s⁻¹ | 248000 M⁻¹ s⁻¹
Hz51H10 (antibody, human IgG1, kappa, V domains shown) VH: QVQLVQSGAEVKKPGASVKVSCKASGYTFTKYIIQWVRQAPGQRLEWMGYINPYNDDTKYNEKFKGRVTITRDTSASTAYMELSSLRSEDMAVYYCARTYYGNSFPNWGQGTLVTVSS VL: not shown | 1.94 nM | 0.000631 s⁻¹ | 325000 M⁻¹ s⁻¹
Hz46F6 (antibody, human IgG1, kappa, V domains shown) VH: QVQLQESGPGLVKPSETLSLTCTVSGFSLTDYGVSWIRQPPGKGLEWIGVMWGGGNTYYNSALKSRVTISVDTSKNQFSLKLSSVTAADTAVYYCARQRYGGNAMDYWGQGTLVTVSS VL: DIVMTQSPDSLAVSLGERATINCKSSQSLLNSGNQRNYLTWYQQKPGQPPKLLIYWASTRESGVPDRFSGSGSGTDFTLTISSLQAEDVAVYYCQNSYFYPFTFGGGTKVEIKR | 1.03 nM | 0.00015 s⁻¹ | 147000 M⁻¹ s⁻¹
Hz25C7 (antibody, human IgG1, kappa, V domains shown) VH: EVQLVESGGGLVQPGGSLRLSCAASGFTFSDYGMAWVRQAPGKGLEWVAFINNLAYSIYYVDTVTGRFTISRDNAKNSLYLQMNSLRAEDTAVYYCARFTTGNVMDYWGQGTLVTVSS VL: DIVMTQSPDSLAVSLGERATINCKSSQSLLQGGNQKNYLTWYQQKPGQPPKLLIYWSSTRESGVPDRFSGSGSGTDFTLTISSLQAEDVAVYYCQNSYSYPLTFGGGTKVEIKR | 9.84 nM | 0.00114 s⁻¹ | 116000 M⁻¹ s⁻¹
Hz3G3 (antibody, human IgG1, kappa, V domains shown) VH: QVQLVQSGAEVKKPGASVKVSCKASGYSFTTYWMHWVRQAPGQGLEWMGLIDPSDSETRLNQKFKDRVTMTVDTSTSTVYMELSSLRSEDTAVYYCASNRWLLGWGQGTLVTVSS VL: DIVMTQSPDSLAVSLGERATINCKSSQSLLNSGNQKNYLTWYQQKPGQPPKLLIYWASTRESGVPDRFSGSGSGTDFTLTISSLQAEDVAVYYCQNDYSYPLTFGQGTKLEIKR | 14.2 nM | 0.000799 s⁻¹ | 56500 M⁻¹ s⁻¹
